Laboratory results reported in the supplement of paper PMC11246515.
± gives the standard deviation of the averaged measurements.

Test: total protein half-life in vivo (active degradation + dilution); higher = more stable protein
[1] = E. coli NCM3722 delta-clpP delta-lon delta-hslV, growth: N-lim chemostat, doubling time 6 h
[2] = E. coli NCM3722 delta-hslV, growth: N-lim chemostat, doubling time 6 h
[3] = E. coli NCM3722 delta-lon, growth: N-lim chemostat, doubling time 6 h
[4] = E. coli NCM3722 delta-clpP, growth: N-lim chemostat, doubling time 6 h
[5] = E. coli NCM3722 delta-smpB, growth: N-lim chemostat, doubling time 6 h
[6] = wild type E. coli NCM3722, growth: C-lim chemostat, doubling time 3 h
[7] = wild type E. coli NCM3722, growth: C-lim chemostat, doubling time 6 h
[8] = wild type E. coli NCM3722, growth: C-lim chemostat, doubling time 12 h
[9] = wild type E. coli NCM3722, growth: N-lim chemostat, doubling time 6 h
[10] = wild type E. coli NCM3722, growth: N-lim chemostat, doubling time 12 h
[11] = wild type E. coli NCM3722, growth: P-lim chemostat, doubling time 6 h
[12] = wild type E. coli NCM3722, growth: P-lim chemostat, doubling time 12 h

Sequence | total protein half-life in vivo [1] [h] | total protein half-life in vivo [2] [h] | total protein half-life in vivo [3] [h] | total protein half-life in vivo [4] [h] | total protein half-life in vivo [5] [h] | total protein half-life in vivo [6] [h] | total protein half-life in vivo [7] [h] | total protein half-life in vivo [8] [h] | total protein half-life in vivo [9] [h] | total protein half-life in vivo [10] [h] | total protein half-life in vivo [11] [h] | total protein half-life in vivo [12] [h]
MSIYKIPLPLNILEAARERITWTLNTLPRVCVSFSGGKDSGLMLHLTAELARQMGKKICVLFIDWEAQFSCTINYVQSLRELYTDVIEEFYWVALPLTTQNSLSQYQPEWQCWEPDVEWVRQPPQDAITDPDFFCFYQPGMTFEQFVREFAEWFSQKRPAAMMIGIRADESYNRFVAIASLNKQRFADDKPWTTAAPGGHSWYIYPIYDWKVADIWTWYANHQSLCNPLYNLMYQAGVPLRHMRICEPFGPEQRQGLWLYHVIEPDRWAAMCARVSGVKSGGIYAGHDNHFYGHRKILKPEHLDWQEYALLLLNSMPEKTAEHYRNKIAIYLHWYQKKGIEVPQTQQGDIGAKDIPSWRRICKVLLNNDYWCRALSFSPTKSKNYQRYNERIKGKRQEWGILCNND | 5.55 | 6.21 | 4.82 |  |  |  |  |  |  |  |  | 
MTLSFVTRWRDELPETYTALSPTPLNNARLIWHNTELANTLSIPSSLFKNGAGVWGGEALLPGMSPLAQVYSGHQFGVWAGQLGDGRGILLGEQLLADGTTMDWHLKGAGLTPYSRMGDGRAVLRSTIRESLASEAMHYLGIPTTRALSIVTSDSPVYRETAEPGAMLMRVAPSHLRFGHFEHFYYRRESEKVRQLADFAIRHYWSHLADDEDKYRLWFSDVVARTASLIAQWQTVGFAHGVMNTDNMSLLGLTLDYGPFGFLDDYEPGFICNHSDHQGRYSFDNQPAVALWNLQRLAQTLSPFVAVDALNEALDSYQQVLLTHYGERMRQKLGFMTEQKEDNALLNELFSLMARERSDYTRTFRMLSLTEQHSAASPLRDEFIDRAAFDDWFARYRGRLQQDEVSDSERQQLMQSVNPALVLRNWLAQRAIEAAEKGDMTELHRLHEALRNPFSDRDDDYVSRPPDWGKRLEVSCSS | 4.63 ± 0.32 | 3.15 ± 0.38 | 3.26 ± 0.13 | 4.26 ± 0.67 | 2.8 ± 0.21 | 2.72 ± 0.068 | 4.57 ± 0.15 | 8.02 ± 1.4 | 2.971 ± 0.012 | 4.63 ± 0.64 | 4.72 ± 0.71 | 8.293 ± 0.077
MPQHDQLHRYLFENFAVRGELVTVSETLQQILENHDYPQPVKNVLAELLVATSLLTATLKFDGDITVQLQGDGPMNLAVINGNNNQQMRGVARVQGEIPENADLKTLVGNGYVVITITPSEGERYQGVVGLEGDTLAACLEDYFMRSEQLPTRLFIRTGDVDGKPAAGGMLLQVMPAQNAQQDDFDHLATLTETIKTEELLTLPANEVLWRLYHEEEVTVYDPQDVEFKCTCSRERCADALKTLPDEEVDSILAEDGEIDMHCDYCGNHYLFNAMDIAEIRNNASPADPQVH [P0A6Y5] | 4.77 ± 0.4 | 4.35 ± 0.87 | 4.6 ± 0.6 | 4.06 ± 0.058 | 3.55 ± 0.12 | 1.924 ± 0.015 | 3.85 ± 0.11 | 7.32 ± 0.54 | 4.02 ± 0.13 | 6.02 ± 0.22 | 4.51 ± 0.073 | 9.18 ± 2
MSVKVIVTDMDGTFLNDAKTYNQPRFMAQYQELKKRGIKFVVASGNQYYQLISFFPELKDEISFVAENGALVYEHGKQLFHGELTRHESRIVIGELLKDKQLNFVACGLQSAYVSENAPEAFVALMAKHYHRLKPVKDYQEIDDVLFKFSLNLPDEQIPLVIDKLHVALDGIMKPVTSGFGFIDLIIPGLHKANGISRLLKRWDLSPQNVVAIGDSGNDAEMLKMARYSFAMGNAAENIKQIARYATDDNNHEGALNVIQAVLDNTSPFNS | 5.01 ± 0.82 | 4.38 ± 0.48 | 4.38 ± 0.34 | 4.02 ± 0.23 | 3.98 ± 0.12 | 3.71 ± 0.2 |  | 12.38 ± 0.075 | 4.31 ± 0.45 | 6.96 ± 0.49 | 6.13 ± 0.23 | 
MAEKKQWHETLHDQFGQYFAVDNVLYHEKTDHQDLIIFENAAFGRVMALDGVVQTTERDEFIYHEMMTHVPLLAHGHAKHVLIIGGGDGAMLREVTRHKNVESITMVEIDAGVVSFCRQYLPNHNAGSYDDPRFKLVIDDGVNFVNQTSQTFDVIISDCTDPIGPGESLFTSAFYEGCKRCLNPGGIFVAQNGVCFLQQEEAIDSHRKLSHYFSDVGFYQAAIPTYYGGIMTFAWATDNDALRHLSTEIIQARFLASGLKCRYYNPAIHTAAFALPQYLQDALASQPS |  | 4.51 ± 0.12 | 4.89 ± 0.27 | 4.62 ± 0.2 | 4.49 ± 0.41 |  | 7.06 ± 0.82 | 9.58 ± 0.14 | 4.21 ± 0.35 | 7.27 ± 0.36 | 5.86 ± 0.46 | 13 ± 2.3
MRVSRSLTIKQMAMVAAVVLVFVFIFCTVLLFHLVQQNRYNTATQLESIARSVREPLSSAILKGDIPEAEAILASIKPAGVVSRADVVLPNQFQALRKSFIPERPVPVMVTRLFELPVQISLGVYSLERPANPQPIAYLVLQADSFRMYKFVMSTLSTLVTIYLLLSLILTVAISWCINRLILHPLRNIARELNAIPAKELVGHQLALPRLHQDDEIGMLVRSYNLNQQLLQRHYEEQNENAMRFPVSDLPNKALLMEMLEQVVARKQTTALMIITCETLRDTAGVLKEAQREILLLTLVEKLKSVLSPRMILAQISGYDFAVIANGVQEPWHAITLGQQVLTIMSERLPIERIQLRPHCSIGVAMFYGDLTAEQLYSRAISAAFTARHKGKNQIQFFDPQQMEAAQKRLTEESDILNALENHQFAIWLQPQVEMTSGKLVSAEVLLRIQQPDGSWDLPDGLIDRIECCGLMVTVGHWVLEESCRLLAAWQERGIMLPLSVNLSALQLMHPNMVADMLELLTRYRIQPGTLILEVTESRRIDDPHAAVAILRPLRNAGVRVALDDFGMGYAGLRQLQHMKSLPIDVLKIDKMFVEGLPGDSSMIAAIIMLAQSLNLQMIAEGVETEAQRDWLAKAGVGIAQGFLFARPLPIEIFEESYLEEK | 6.54 ± 0.19 | 6.2 ± 0.23 | 5.77 ± 0.32 | 6.31 ± 0.11 | 6.1 ± 0.082 | 2.998 ± 0.0049 | 5.7 ± 1.1 | 13 ± 0.22 | 6.054 ± 0.008 | 12.3 ± 0.63 | 6.161 ± 0.035 | 12.5 ± 0.55
MATVPTRSGSPRQLTTKQTGDAWEAQARRWLEGKGLRFIAANVNERGGEIDLIMREGRTTIFVEVRYRRSALYGGAAASVTRSKQHKLLQTARLWLARHNGSFDTVDCRFDVVAFTGNEVEWIKDAFNDHS | 6.46 ± 0.81 | 2.03 |  |  | 2.14 |  | 2.97 | 2.89 ± 0.49 |  |  | 1.88 | 3.74
MQDAAPRLTFTLRDEERLMMKIGVFVPIGNNGWLISTHAPQYMPTFELNKAIVQKAEHYHFDFALSMIKLRGFGGKTEFWDHNLESFTLMAGLAAVTSRIQIYATAATLTLPPAIVARMAATIDSISGGRFGVNLVTGWQKPEYEQMGIWPGDDYFSRRYDYLTEYVQVLRDLWGTGKSDFKGDFFTMNDCRVSPQPSVPMKVICAGQSDAGMAFSARYADFNFCFGKGVNTPTAFAPTAARMKQAAEQTGRDVGSYVLFMVIADETDDAARAKWEHYKAGADEEALSWLTEQSQKDTRSGTDTNVRQMADPTSAVNINMGTLVGSYASVARMLDEVASVPGAEGVLLTFDDFLSGIETFGERIQPLMQCRAHLPALTQEVA | 5.26 ± 0.37 | 0.715 ± 0.26 | 0.661 ± 0.0067 | 3.06 ± 0.12 | 0.481 ± 0.11 |  |  |  | 0.658 ± 0.16 | 0.664 ± 0.16 |  | 
MAESFTTTNRYFDNKHYPRGFSRHGDFTIKEAQLLERHGYAFNELDLGKREPVTEEEKLFVAVCRGEREPVTEAERVWSKYMTRIKRPKRFHTLSGGKPQVEGAEDYTDSDD [P0ADN2] |  |  | 5.14 ± 0.96 |  | 3.28 ± 0.088 | 2.19 ± 0.043 | 4.55 ± 0.35 | 5.73 | 3.09 ± 0.15 | 5.68 ± 0.092 | 3.14 ± 0.43 | 5.53 ± 0.6
MKIKAVGAYSAKQPLEPMDITRREPGPNDVKIEIAYCGVCHSDLHQVRSEWAGTVYPCVPGHEIVGRVVAVGDQVEKYAPGDLVGVGCIVDSCKHCEECEDGLENYCDHMTGTYNSPTPDEPGHTLGGYSQQIVVHERYVLRIRHPQEQLAAVAPLLCAGITTYSPLRHWQAGPGKKVGVVGIGGLGHMGIKLAHAMGAHVVAFTTSEAKREAAKALGADEVVNSRNADEMAAHLKSFDFILNTVAAPHNLDDFTTLLKRDGTMTLVGAPATPHKSPEVFNLIMKRRAIAGSMIGGIPETQEMLDFCAEHGIVADIEMIRADQINEAYERMLRGDVKYRFVIDNRTLTD | 4.84 ± 0.2 | 4.92 ± 0.16 | 5.05 ± 0.38 | 4.8 ± 0.18 | 4.66 ± 0.61 | 3.225 ± 0.021 | 5.86 ± 0.58 | 11 ± 0.91 | 5.04 ± 0.17 | 8.89 ± 0.21 | 6.23 ± 0.59 | 12 ± 0.78
MSEPQRLFFAIDLPAEIREQIIHWRATHFPPEAGRPVAADNLHLTLAFLGEVSAEKEKALSLLAGRIRQPGFTLTLDDAGQWLRSRVVWLGMRQPPRGLIQLANMLRSQAARSGCFQSNRPFHPHITLLRDASEAVTIPPPGFNWSYAVTEFTLYASSFARGRTRYTPLKRWALTQ | 5.3 ± 0.55 |  |  | 4.8 | 4.66 ± 0.56 | 3.11 | 6.25 ± 0.27 | 11 | 5.03 ± 0.89 | 8.49 ± 0.71 | 5.55 ± 0.13 | 11.33 ± 0.097
MTRLAEILDQMSAVLNDLKTVMDQEQQHLSMGQINGSQLQWITEQKSSLLATLDYLEQLRRKEPNTANSVDISQRWQEITVKTQQLRQMNQHNGWLLEGQIERNQQALEMLKPHQEPTLYGANGQTSTTHRGGKKISI |  |  |  |  |  | 1.15 ± 0.27 | 4.91 | 3.28 |  |  |  | 
